{"source": "paper PMC3979721", "about": "“Biochemical Properties of Ectoine Hydroxylases from Extremophiles and Their Wider Taxonomic Distribution among Microorganisms” (PLoS ONE, 2014)", "proteins": {"B1": {"name": "EctD from V. salexigens (VsEctD) (Virgibacillus salexigens) (protein)", "chain": "MEDLYPSRQNNQPKILKRKDPVIYTDRSKDNQAPITKEQLDSYEKNGFLQIKNFFSEDEVIDMQKAIFELQDSIKDVASDKVIREPESNDIRSIFHVHQDDNYFQDVANDKRILDIVRHLLGSDVYVHQSRINYKPGFKGKEFDWHSDFETWHVEDGMPRMRAISVSIALSDNYSFNGPLMLIPGSHNYFVSCVGETPDNNYKESLKKQKLGVPDEESLRELTRIGGGISVPTGKAGSVTLFESNTMHGSTSNITPYPRNNLFMVYNSVKNRLVEPFSGGEKRPEYIAVREKQPVYSAVN", "notes": "homodimer"}, "B2": {"name": "Sphingopyxis alaskensis EctD protein (ectoine hydroxylase) (enzyme, UniProt Q1GNW5 1-306, looked up)", "chain": "MQDLYPSRQRADAEMRPRLDPVVHSEWTNDAPISARQAAAFDRDGYIVLEDIFSADEVAFLQKAAGNLLADPAALDADTIVTEPQSNEIRSIFEIHAQSPVMARLAADARLADVARFLLGDEVYIHQSRLNYKPGFKGREFYWHSDFETWHVEDGMPRMRALSMSVLLAENTPHNGPLMVIPGSHRTYLTCVGETPDDHYLSSLKKQEYGVPDEESLAELAHRHGIVAPTGKPGTVILFDCNLMHGSNGNITPFPRANAFLVYNAVSNRLEKPFGVEKPRPWFLARRGEPAALRVERGPLVETVPA", "notes": "Ectoine hydroxylase EctD of Sphingopyxis alaskensis; ectD gene amplified from chromosomal DNA; 35.29 kDa with the nine-residue Strep-tag II peptide; Contains about 0.87-0.96 mol iron per mol protein; also called EctD from S. alaskensis; S. alaskensis enzyme; not shown: Strep-tag II, C-terminal, kept"}, "B3": {"name": "EctD from H. elongata (Halomonas elongata DSM 2581) (protein)", "chain": "MSVQTSSNRPLPQANLHIATETPEADSRIRSAPRPGQDPYPTRLSEPLDLPWLNRREPVVKGEEADGPLSAAQLDTFERQGFIFEPDFLKGEELEALRHELNALLARDDFRGRDFAITEPQGNEIRSLFAVHYLSRVFSRLANDERLMGRARQILGGEPYVHQSRINYKPGFEGKGFNWHSDFETWHAEDGMPAMHAVSASIVLTDNHTFNGPLMLVPGSHRVFVPCLGETPEDHHRQSLKTQEFGVPSRQALRELIDRHGIEAPTGAAGGLLLFDCNTLHGSNANMSPDPRSNAFFVYNRRDNRCVEPYAASKRRPRFLAHEPDEAWSPDG", "notes": "homodimer"}, "B4": {"name": "EctD from P. stutzeri (Stutzerimonas stutzeri A1501) (protein)", "chain": "MQADLYPSRQEDQPSWQERLDPVVYRSDLENAPIAAELVERFERDGYLVIPNLFSADEVALFRAELERMRQDPAVAGSGKTIKEPDSGAIRSVFAIHKDNELFARVAADERTAGIARFILGGDLYVHQSRMNFKPGFTGKEFYWHSDFETWHIEDGMPRMRCLSCSILLTDNEPHNGPLMLMPGSHKHYVRCVGATPENHYEKSLRKQEIGIPDQNSLSELASRFGIDCATGPAGSVVFFDCNTMHGSNGNITPSARSNLFYVYNHVDNAVQAPFCEQKPRPAFVAERENFKPLDIRPQQYL", "notes": "homodimer"}, "B5": {"name": "EctD from A. cryptum (Acidiphilium cryptum JF-5) (protein)", "chain": "MDDLYPSRREPTPSLLPRHDPVVHGRWAPGAPLSDEQTRFYDTNGYLVLENVFDPAEIALLQSGSMDLLANPAGLDRETIITERGSDEVRSIFAIHAQNELLGRLAADSRIAGVARFLLDDDVYIHQSRLNYKPGFDGKEFYWHSDFETWHVEDGMPRMRALSMSILLAENTANNGPLMVIPGSHRKYLTCVGETPENHYRSSLKKQEYGVPDREMLTALASDHGIVAPTGKAGTVVLFDCNTMHGSNGNITPFPRSNAFFVFNAKANSLVEPFGPKSRRPDFIADRAFTTVDIVKGPLVRRERAA", "notes": "homodimer"}}, "key": {"[1]": {"substrate": "CC1=N[C@H](C(=O)O)CCN1", "assay": "HPLC assay of 5-hydroxyectoine formation", "format": "biochemical, Virgibacillus salexigens", "conditions": "apparent, with 2-oxoglutarate, Fe(II), O2, TES buffer, optimum pH 7.5, 32 °C and optimised salt, kcat per homodimer", "description": "(§1) HPLC assay of 5-hydroxyectoine formation on EctD from V. salexigens (VsEctD)"}, "[2]": {"substrate": "O=C(O)CCC(=O)C(=O)O", "assay": "HPLC assay of 5-hydroxyectoine formation", "format": "biochemical, Virgibacillus salexigens", "conditions": "apparent, co-substrate, varied 0-50 mM, with ectoine, Fe(II), O2, pH 7.5, 32 °C", "description": "as §1"}, "[3]": {"biological_target": "the molecule itself", "assay": "SEC; 1 ml of protein at 5 mg/ml on a HiLoad 16/600 Superdex 200 pg column, 20 mM TES-buffer containing 150 NaCl; size against standards of 29, 66 and 150 kDa (Fig. S6)"}, "[4]": {"substrate": "CC1=N[C@H](C(=O)O)CCN1", "assay": "HPLC assay of 5-hydroxyectoine formation", "format": "biochemical, Sphingopyxis alaskensis", "conditions": "apparent, with 2-oxoglutarate, Fe(II), O2, optimum pH 8.0, 40 °C and optimised salt, kcat per homodimer", "description": "(§2) HPLC assay of 5-hydroxyectoine formation on EctD from S. alaskensis"}, "[5]": {"substrate": "O=C(O)CCC(=O)C(=O)O", "assay": "HPLC assay of 5-hydroxyectoine formation", "format": "biochemical, Sphingopyxis alaskensis", "conditions": "apparent, co-substrate, with ectoine, Fe(II), O2, pH 8.0, 40 °C", "description": "as §2"}, "[6]": {"substrate": "CC1=N[C@H](C(=O)O)CCN1", "assay": "HPLC assay of 5-hydroxyectoine formation", "format": "biochemical, Halomonas elongata", "conditions": "apparent, with 2-oxoglutarate, Fe(II), O2, optimum pH 8.0, 32 °C and optimised salt, kcat per homodimer", "description": "(§3) HPLC assay of 5-hydroxyectoine formation on EctD from H. elongata"}, "[7]": {"substrate": "O=C(O)CCC(=O)C(=O)O", "assay": "HPLC assay of 5-hydroxyectoine formation", "format": "biochemical, Halomonas elongata", "conditions": "apparent, co-substrate, with ectoine, Fe(II), O2, pH 8.0, 32 °C", "description": "as §3"}, "[8]": {"substrate": "CC1=N[C@H](C(=O)O)CCN1", "assay": "HPLC assay of 5-hydroxyectoine formation", "format": "biochemical, Stutzerimonas stutzeri", "conditions": "apparent, with 2-oxoglutarate, Fe(II), O2, optimum pH 7.5, 35 °C and optimised salt, kcat per homodimer", "description": "(§4) HPLC assay of 5-hydroxyectoine formation on EctD from P. stutzeri"}, "[9]": {"substrate": "O=C(O)CCC(=O)C(=O)O", "assay": "HPLC assay of 5-hydroxyectoine formation", "format": "biochemical, Stutzerimonas stutzeri", "conditions": "apparent, co-substrate, with ectoine, Fe(II), O2, pH 7.5, 35 °C", "description": "as §4"}, "[10]": {"substrate": "CC1=N[C@H](C(=O)O)CCN1", "assay": "HPLC assay of 5-hydroxyectoine formation", "format": "biochemical, Acidiphilium cryptum", "conditions": "apparent, with 2-oxoglutarate, Fe(II), O2, optimum pH 8.0, 32 °C and optimised salt, kcat per homodimer", "description": "(§5) HPLC assay of 5-hydroxyectoine formation on EctD from A. cryptum"}, "[11]": {"substrate": "O=C(O)CCC(=O)C(=O)O", "assay": "HPLC assay of 5-hydroxyectoine formation", "format": "biochemical, Acidiphilium cryptum", "conditions": "apparent, co-substrate, with ectoine, Fe(II), O2, pH 8.0, 32 °C", "description": "as §5"}}, "data": [{"protein": "B1", "values": [{"measurement": "Km", "setting": "[1]", "value": "5.9 ± 0.3", "unit": "mM"}, {"measurement": "kcat", "setting": "[1]", "value": 7.7, "unit": "s⁻¹"}, {"measurement": "kcat/Km", "setting": "[1]", "value": 1310, "unit": "M⁻¹ s⁻¹"}, {"measurement": "Km", "setting": "[2]", "value": "4.9 ± 0.3", "unit": "mM"}]}, {"protein": "B2", "values": [{"measurement": "stoichiometry N", "setting": "[3]", "value": 2}, {"measurement": "Km", "setting": "[4]", "value": "9.8 ± 0.5", "unit": "mM"}, {"measurement": "kcat", "setting": "[4]", "value": 1.2, "unit": "s⁻¹"}, {"measurement": "kcat/Km", "setting": "[4]", "value": 120, "unit": "M⁻¹ s⁻¹"}, {"measurement": "Km", "setting": "[5]", "value": "2.7 ± 0.3", "unit": "mM"}]}, {"protein": "B3", "values": [{"measurement": "Km", "setting": "[6]", "value": "5.7 ± 0.6", "unit": "mM"}, {"measurement": "kcat", "setting": "[6]", "value": 2.8, "unit": "s⁻¹"}, {"measurement": "kcat/Km", "setting": "[6]", "value": 490, "unit": "M⁻¹ s⁻¹"}, {"measurement": "Km", "setting": "[7]", "value": "4.8 ± 0.4", "unit": "mM"}, {"measurement": "kcat", "setting": "[7]", "value": 2.8, "unit": "s⁻¹"}, {"measurement": "kcat/Km", "setting": "[7]", "value": 490, "unit": "M⁻¹ s⁻¹"}]}, {"protein": "B4", "values": [{"measurement": "Km", "setting": "[8]", "value": "6.2 ± 0.4", "unit": "mM"}, {"measurement": "kcat", "setting": "[8]", "value": 8.9, "unit": "s⁻¹"}, {"measurement": "kcat/Km", "setting": "[8]", "value": 1440, "unit": "M⁻¹ s⁻¹"}, {"measurement": "Km", "setting": "[9]", "value": "4.6 ± 0.5", "unit": "mM"}]}, {"protein": "B5", "values": [{"measurement": "Km", "setting": "[10]", "value": "10.0 ± 0.6", "unit": "mM"}, {"measurement": "kcat", "setting": "[10]", "value": 3.4, "unit": "s⁻¹"}, {"measurement": "kcat/Km", "setting": "[10]", "value": 340, "unit": "M⁻¹ s⁻¹"}, {"measurement": "Km", "setting": "[11]", "value": "4.1 ± 0.4", "unit": "mM"}]}]}
